Data reported in US20230312722A1 (NONA BIOSCIENCES SUZHOU, published 2023).
Read-outs that look alike come from different tables or passages of the source.

What was measured:
CD3 on human T cells [1] = molecular target: T1, CD3 on human T cells (human, UniProt P07766 23-207; P04234 22-171; P09693 23-182); experiment: FACS on human T cells
Method: (§1) SK-BR-3 cells were digested. T cells were isolated using the human T cell isolation kit (Miltenyi, #130-096-535) as described in the method of the instruction, and resuspended with PBS containing 2% BSA. The cell density was adjusted to 1×10⁶ cells/mL. The cells were seeded in a 96-well V-bottom plate (Corning, #3894) at 100 μL/well, followed by the addition of test antibodies diluted in a 3-fold gradient at a concentration that was 2 times the final concentration, each at 100 μL/well. The cells were incubated at 4° C. for 2 h away from light. Thereafter, the cells in each well were rinsed twice with 100 μL of pre-cooled PBS containing 2% BSA, and centrifuged at 500 g at 4° C. for 5 min, and then the supernatant was discarded. Then each well was added with 100 μL of fluorescent secondary antibody (Alexa Fluor 488-conjugated AffiniPure Goat Anti-Human IgG, Fcγ Fragment Specific, Jackson, #109-545-098, diluted in a 1:500 ratio), and the plate was incubated away from light at 4° C. for 1 h. The cells in each well were washed twice with 100 μL of pre-cooled PBS containing 2% BSA, and centrifuged at 500 g at 4° C. for 5 minutes, and then the supernatant was discarded. Finally, the cells in each well were resuspended with 200 μL of pre-cooled PBS containing 2% BSA, and the fluorescence signal values were read using an ACEA Novocyte3000 flow cytometer.

CD3 on human T cells [2] = molecular target: T1, CD3 on human T cells; experiment: FACS on human T cells; remark: listed apart in the source
Method: as §1

CD3 on human T cells [3] = molecular target: T1, CD3 on human T cells; experiment: FACS on human T cells; remark: listed apart in the source
Method: as §1

CD3 on human T cells [4] = molecular target: T1, CD3 on human T cells; experiment: FACS on human T cells; remark: listed apart in the source
Method: as §1

[5] = molecular target: T2, human B7H4 on the cell surface (human, UniProt Q7Z7D3 25-282); experiment: FACS on SK-BR-3 cells, expression supernatant at 1 X and 10X
T2 construct: whole, on cells; also called CHOK1/hu B7H4; B7H4 on SK-BR-3
T2 sequence (looked up): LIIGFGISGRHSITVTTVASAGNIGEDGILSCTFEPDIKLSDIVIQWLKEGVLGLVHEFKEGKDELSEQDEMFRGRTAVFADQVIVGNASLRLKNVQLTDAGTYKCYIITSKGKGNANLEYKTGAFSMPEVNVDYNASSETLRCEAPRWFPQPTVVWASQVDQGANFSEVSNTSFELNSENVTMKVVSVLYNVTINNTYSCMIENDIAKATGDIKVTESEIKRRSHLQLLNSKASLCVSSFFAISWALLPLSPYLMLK

[6] = molecular target: T2, human B7H4 on the cell surface; experiment: FACS on SK-BR-3 cells
Method: as §1

CD3 on human T cells [7] = molecular target: T1, CD3 on human T cells; experiment: FACS on human T cells; EC50 printed as n.d., curve still rising at 100 nM
Method: as §1

[8] = molecular target: T2, human B7H4 on the cell surface; experiment: FACS on SK-BR-3 cells; the printed number lies below the lowest concentration shown (0.03 nM)
Method: as §1

[9] = molecular target: T3, B7-H4 (Acro Biosystems, #B74-H82E2) (UniProt Q7Z7D3 29-258); experiment: BLI epitope competition; 1st Ab = row; competitor (2nd Ab) PR002421; inhibition of the 2nd Ab signal
T3 construct: Bought protein; also called B7-H4 captured on SA sensor
T3 sequence (looked up): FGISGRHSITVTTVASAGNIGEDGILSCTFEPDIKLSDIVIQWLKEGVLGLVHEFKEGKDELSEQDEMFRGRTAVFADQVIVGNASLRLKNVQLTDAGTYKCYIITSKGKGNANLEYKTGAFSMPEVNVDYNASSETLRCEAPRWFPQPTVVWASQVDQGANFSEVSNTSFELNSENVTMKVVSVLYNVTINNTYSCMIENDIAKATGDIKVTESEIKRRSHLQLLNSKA
Method: (§2) Step one, acquisition of 100% signal of antibodies: B7-H4 (Acro Biosystems, #B74-H82E2-200 μg) was captured at a capture height of 0.25 nm using an SA sensor (Fortebio, #18-5019). The sensor was equilibrated in a buffer for 120 s and then immersed in each antibody diluted to 100 nM for 240 s, and the final signal of the antibody binding to B7-H4 was recorded as the 100% signal of the antibody. Step two, epitope competition experiment: B7-H4 was captured using an SA sensor at a capture height of 0.25 nm. The sensor was immersed in a primary antibody (at a concentration of 100 nM) for 240 s, and then the SA sensor was immersed in a mixture of the primary and secondary antibodies (both at a final concentration of 100 nM) for 240 s, and the difference in signals after immersion of the sensor in the antibody mixture was recorded as the signal of the antibody as the secondary antibody. The inhibition rate was calculated according to the following formula: […]

[10] = molecular target: T3, B7-H4 (Acro Biosystems, #B74-H82E2); experiment: BLI epitope competition; 1st Ab = row; competitor (2nd Ab) PR002418; inhibition of the 2nd Ab signal
Method: as §2

[11] = molecular target: T3, B7-H4 (Acro Biosystems, #B74-H82E2); experiment: BLI epitope competition; 1st Ab = row; competitor (2nd Ab) Control antibody 2; inhibition of the 2nd Ab signal
Method: as §2

[12] = molecular target: T4, Human B7H4 (his tag), Sino Biological #10738-H08H (human, UniProt Q7Z7D3 25-259); experiment: SPR (Biacore T200), antibody captured on Protein A, B7H4-his as analyte, 1:1 fit
T4 construct: extracellular domain; Bought protein; also called hB7H4-ECD-his
T4 sequence (looked up): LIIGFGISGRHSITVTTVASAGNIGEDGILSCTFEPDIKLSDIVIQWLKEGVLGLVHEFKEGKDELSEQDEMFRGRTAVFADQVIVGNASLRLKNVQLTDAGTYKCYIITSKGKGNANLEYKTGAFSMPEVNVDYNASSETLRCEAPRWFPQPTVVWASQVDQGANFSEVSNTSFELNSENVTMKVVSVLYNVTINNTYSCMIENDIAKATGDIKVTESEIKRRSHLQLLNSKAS
Method: 10×HBS-EP+ (GE Healthcare, #BR-1006-69) was diluted 10-fold and then taken as an experimental buffer. The flow rate was set at 10 μL/min, and Protein A was coupled to 4 channels of a chip CM5 (GE Healthcare, #BR-1005-30) through the following procedures: 1) the injection time was set to 800 s, and a fresh mixture of 50 mM NHS and 200 mM EDC was injected into the 4 channels in a volume ratio of 1:1; 2) Protein A was diluted to 20 μg/mL with sodium acetate (GE Healthcare, #BR-1003-50) at pH 4.5 and injected into each channel for 800 s; and 3) 1 M ethanolamine at pH 8.5 was injected for 800 s to block the remaining active carboxyl groups on the chip surface. After blocking, the instrument was equilibrated with 1×HBS-EP+buffer for 2 hours, and the final coupling level of Protein A was about 2000 RU.
A multi-cycle kinetics mode was set at Biacore T200, and each cycle included antibody capture, analyte binding and chip regeneration. […] Finally, 10 mM glycine-hydrochloric acid at pH 1.5 (GE Healthcare, #BR-1003-54) was injected at the same flow rate for 30 s to regenerate the chip.
The experimental results were analyzed using the Biacore T200 analysis software 2.0, with channel 1 subtracted as a reference channel and a 1:1 kinetic fitting model selected as an analysis model.

[13] = molecular target: T3, B7-H4 (Acro Biosystems, #B74-H82E2); experiment: BLI epitope competition; 1st Ab = row; competitor (2nd Ab) Control antibody 1; inhibition of the 2nd Ab signal
Method: as §2

T1 sequence (P07766 23-207 limits assumed, chain 1 of 3): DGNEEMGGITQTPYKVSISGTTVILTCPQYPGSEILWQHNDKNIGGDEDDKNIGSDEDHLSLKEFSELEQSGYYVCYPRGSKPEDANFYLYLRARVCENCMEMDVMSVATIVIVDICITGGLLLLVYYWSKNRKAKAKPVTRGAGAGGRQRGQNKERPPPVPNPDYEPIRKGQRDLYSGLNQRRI
T1 sequence (P04234 22-171 limits assumed, chain 2 of 3): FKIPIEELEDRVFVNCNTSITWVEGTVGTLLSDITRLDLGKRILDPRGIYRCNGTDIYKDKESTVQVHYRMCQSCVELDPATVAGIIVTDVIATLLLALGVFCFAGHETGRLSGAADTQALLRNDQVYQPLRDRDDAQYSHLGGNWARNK
T1 sequence (P09693 23-182 limits assumed, chain 3 of 3): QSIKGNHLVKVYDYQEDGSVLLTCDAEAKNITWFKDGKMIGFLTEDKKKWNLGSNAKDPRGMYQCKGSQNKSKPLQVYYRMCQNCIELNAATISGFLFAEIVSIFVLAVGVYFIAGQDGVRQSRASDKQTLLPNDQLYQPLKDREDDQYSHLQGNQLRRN

B1: PR001924 (antibody, V domains shown)
VH: EVQLLESGGGLVQPGGSLRLSCAASGFTFSTYAMNWVRQAPGKGLEWVSRIRSKYNNYATYYADSVKDRFTISRDDSKSTLYLQMNSLRAEDTAVYYCVRHGNFGNSYVSWFAYWGQGTLVTVSS
VL: QAVVTQEPSLTVSPGGTVTLTCRSSTGAVTTSNYANWVQQKPGQAPRGLIGGTNKRAPWTPARFSGSLLGDKAALTLLGAQPEDEAEYFCALWYSNLWVFGGGTKLTVLG
notes: also called PR001924 (αCD3 IgG)
EC50 (CD3 on human T cells [1]): 7.5 nM | EC50 (CD3 on human T cells [2]): 6.1 nM | EC50 (CD3 on human T cells [3]): 7.5 nM | EC50 (CD3 on human T cells [4]): 7.5 nM

B2: PR002405 (antibody, human IgG1, kappa, V domains shown)
VH: QVQLVESGGGVVQPGRSLRLSCAASGFTFRSFGMHWVRQAPGKGLEWVAVISYEGSNEYYADSVKGRFIISRDNSKDTLYLQMNSLRAGDTAVYYCAKGGGLRWYFAYWGQGTLVTVSS
VL: EIVMTQSPATLSVSPGERATLSCRASQSISSNLGWYQQKPGQAPRLLIYGASTRATGIPARFSGSGSGTEFTLTISSLQSEDFAVYYCQQYQSWPPLTFGGGTKVEIKR
notes: variant of PR001476 (H: D54E); also called PR002405 supernatant
binding result [5]: binds

B3: PR003899 (bispecific antibody, human IgG1, lambda, L234A L235A)
light: QAVVTQEPSLTVSPGGTVTLTCRSSTGAVTTSNYANWVQQKPGQAPRGLIGGTNKRAPWTPARFSGSLLGDKAALTLLGAQPEDEAEYFCALWYSNLWVFGGGTKLTVLGQPKAAPSVTLFPPSSEELQANKATLVCLISDFYPGAVTVAWKADSSPVKAGVETTTPSKQSNNKYAASSYLSLTPEQWKSHRSYSCQVTHEGSTVEKTVAPTECS
heavy: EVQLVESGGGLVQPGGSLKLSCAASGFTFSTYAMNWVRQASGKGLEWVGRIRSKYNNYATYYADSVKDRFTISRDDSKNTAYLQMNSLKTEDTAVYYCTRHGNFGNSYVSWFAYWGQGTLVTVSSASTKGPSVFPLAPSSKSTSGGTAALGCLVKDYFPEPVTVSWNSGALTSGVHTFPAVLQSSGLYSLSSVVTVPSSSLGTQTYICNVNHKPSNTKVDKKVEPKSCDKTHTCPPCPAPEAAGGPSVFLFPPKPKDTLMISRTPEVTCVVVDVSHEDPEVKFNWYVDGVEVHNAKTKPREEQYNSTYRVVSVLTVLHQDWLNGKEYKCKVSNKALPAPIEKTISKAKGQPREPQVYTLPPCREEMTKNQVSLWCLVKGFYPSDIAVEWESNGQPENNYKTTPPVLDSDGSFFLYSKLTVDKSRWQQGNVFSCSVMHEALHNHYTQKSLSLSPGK
chain: EIVMTQSPASLSVSPGERATLSCRASQSVSSNLAWYQQKPGQAPRLLIYGASTRATGIPARVSGGGSGTEFTLTISSLQSEDFAVYYCQQYKNWPFTFGPGTKLEIKGGGGSGGGGSGGGGSGGGGSQVQLVQSGAEVKKPGSSMRVSCKASEDTFSSYAISWVRQAPGQGLEWMGGTAPIFGTTNYAQKFQGRVTITADKSTSTAYMELSSLRSEDTAVYYCARGGPYFDYWGQGTLVTVSSASEPKSSDKTHTCPPCPAPEAAGGPSVFLFPPKPKDTLMISRTPEVTCVVVDVSHEDPEVKFNWYVDGVEVHNAKTKPREEQYNSTYRVVSVLTVLHQDWLNGKEYKCKVSNKALPAPIEKTISKAKGQPREPQVCTLPPSREEMTKNQVSLSCAVKGFYPSDIAVEWESNGQPENNYKTTPPVLDSDGSFFLVSKLTVDKSRWQQGNVFSCSVMHEALHNHYTQKSLSLSPGK
notes: B7H4 x CD3, 1+1 Fab-Fc-scFv: CD3 Fab from PR003886 (knob, LALA; weak CD3 end), B7H4 scFv(VL-VH)-Fc (hole, LALA)
EC50 [6]: 51.2 nM | Maximum MFI [6]: 227000 | binding result (CD3 on human T cells [2]): no binding (tested: 100 nM)

B4: PR002987 (bispecific antibody, human IgG1, kappa, lambda, L234A L235A)
chain 1: EVQLLESGGGLVQPGGSLRLSCAASGFTFSTYAMNWVRQAPGKGLEWVSRIRSKYNNYATYYADSVKDRFTISRDDSKSTLYLQMNSLRAEDTAVYYCVRHGNFGNSYVSWFAYWGQGTLVTVSSASTKGPSVFPLAPSSKSTSGGTAALGCLVKDYFPEPVTVSWNSGALTSGVHTFPAVLQSSGLYSLSSVVTVPSSSLGTQTYICNVNHKPSNTKVDKKVEPKSC
chain 2: not shown
heavy: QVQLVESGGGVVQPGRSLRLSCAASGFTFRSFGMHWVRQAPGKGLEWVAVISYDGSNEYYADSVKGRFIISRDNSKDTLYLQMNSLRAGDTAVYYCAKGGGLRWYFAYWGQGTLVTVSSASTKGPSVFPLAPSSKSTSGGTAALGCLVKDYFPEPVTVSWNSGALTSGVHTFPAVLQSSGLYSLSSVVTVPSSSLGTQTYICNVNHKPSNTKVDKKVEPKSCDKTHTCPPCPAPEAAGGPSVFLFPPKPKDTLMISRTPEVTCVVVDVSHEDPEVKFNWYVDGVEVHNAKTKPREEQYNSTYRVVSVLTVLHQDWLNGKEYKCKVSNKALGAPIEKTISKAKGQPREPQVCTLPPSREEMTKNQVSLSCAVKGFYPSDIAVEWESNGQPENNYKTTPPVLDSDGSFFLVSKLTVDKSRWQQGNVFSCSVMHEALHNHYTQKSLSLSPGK
light: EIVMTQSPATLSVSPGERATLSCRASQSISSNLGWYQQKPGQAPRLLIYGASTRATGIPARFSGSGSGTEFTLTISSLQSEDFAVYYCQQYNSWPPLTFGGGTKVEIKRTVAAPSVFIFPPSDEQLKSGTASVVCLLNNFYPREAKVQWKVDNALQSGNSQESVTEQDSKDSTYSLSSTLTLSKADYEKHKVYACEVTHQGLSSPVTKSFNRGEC
notes: B7H4 x CD3, 2+1 asymmetric structure (structure 5): CD3 end from PR001924, two B7H4 Fabs from PR001476
EC50 [6]: 0.145 nM | Maximum MFI [6]: 193000 | Maximum MFI (CD3 on human T cells [7]): 73600

B5: PR002994 (bispecific antibody, human IgG1, kappa, lambda, L234A L235A)
chain 1: EVQLLESGGGLVQPGGSLRLSCAASGFTFSTYAMNWVRQAPGKGLEWVSRIRSKYNNYATYYADSVKDRFTISRDDSKSTLYLQMNSLRAEDTAVYYCVRHGNFGNSYVSWFAYWGQGTLVTVSSASTKGPSVFPLAPSSKSTSGGTAALGCLVKDYFPEPVTVSWNSGALTSGVHTFPAVLQSSGLYSLSSVVTVPSSSLGTQTYICNVNHKPSNTKVDKKVEPKSC
chain 2: not shown
heavy: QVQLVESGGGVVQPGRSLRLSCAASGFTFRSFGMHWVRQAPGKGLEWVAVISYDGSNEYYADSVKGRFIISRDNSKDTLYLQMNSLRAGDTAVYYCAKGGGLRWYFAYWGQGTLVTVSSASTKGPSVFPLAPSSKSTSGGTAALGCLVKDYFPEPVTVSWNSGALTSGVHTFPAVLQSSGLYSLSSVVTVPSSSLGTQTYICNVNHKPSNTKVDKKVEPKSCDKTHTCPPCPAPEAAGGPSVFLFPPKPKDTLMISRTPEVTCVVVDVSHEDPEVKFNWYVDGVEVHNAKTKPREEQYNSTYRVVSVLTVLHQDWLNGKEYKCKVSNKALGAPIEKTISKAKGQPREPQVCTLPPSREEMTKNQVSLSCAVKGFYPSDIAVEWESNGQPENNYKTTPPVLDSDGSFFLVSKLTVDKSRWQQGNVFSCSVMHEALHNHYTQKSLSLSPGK
light: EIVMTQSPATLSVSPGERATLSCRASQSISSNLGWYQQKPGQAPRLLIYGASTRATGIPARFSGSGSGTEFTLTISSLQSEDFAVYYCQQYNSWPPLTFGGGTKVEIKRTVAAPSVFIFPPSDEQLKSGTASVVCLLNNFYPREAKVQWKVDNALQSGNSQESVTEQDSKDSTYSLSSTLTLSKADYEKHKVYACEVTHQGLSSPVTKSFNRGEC
notes: B7H4 x CD3, 2+1 asymmetric structure (structure 6): CD3 end from PR001924, two B7H4 Fabs from PR001476
Maximum MFI [6]: 183000 | Maximum MFI (CD3 on human T cells [7]): 73000 | EC50 [8]: 0.006 nM

B6: Control antibody 2 (PR002962) (antibody, human IgG1, kappa, V domains shown)
VH: QLQLQESGPGLVKPSETLSLTCTVSGGSIKSGSYYWGWIRQPPGKGLEWIGNIYYSGSTYYNPSLRSRVTISVDTSKNQFSLKLSSVTAADTAVYYCAREGSYPNQFDPWGQGTLVTVSS
VL: EIVMTQSPATLSVSPGERATLSCRASQSVSSNLAWYQQKPGQAPRLLIYGASTRATGIPARFSGSGSGTEFTLTISSLQSEDFAVYYCQQYHSFPFTFGGGTKVEIKR
notes: Anti-B7H4 IgG1 control antibody from WO2019040780A1 (FivePrime), Fc mutated on the basis of PR002961 to enhance ADCC
Competitive inhibition rate (%) [9]: 6.32% | Competitive inhibition rate (%) [10]: 4.49% | Competitive inhibition rate (%) [11]: 95.8% | Kd [12]: 4.45 nM | koff [12]: 0.00116 s⁻¹ | kon [12]: 261000 M⁻¹ s⁻¹ | Competitive inhibition rate (%) [13]: 96.6%
